Positions count from the first letter of the chain named. Names may count otherwise.
B1: neutralizing monoclonal antibody 8H3 (antibody, V domains shown)
VH: QVQLKESGPGLVAPSQSLSITCTVSGFSLIGYGVNWVRQPPEKGLEWLGMIWGDGSTDYNSALKSRLSITKDNSKSQVFLKMNSLQTDDTARYYCAMGVRPDPFDYWGQGTLVTVSA
VL: NIMMTQSPSSLAVSAGEKVTMSCKSSQSVLYSSNQKNYLAWYQQKPGQSPKLLIYWASARESGVPDRFTGSGSGTDFTLTINSVQTEDLAVYYCHQYLSSYTFGGGTKLEIK
B2: neutralizing monoclonal antibody 8C11 (antibody, V domains shown)
VH: QVTLKESGPGILQPSQTLSLTCSFSGFSLSTSGMGVGWIRQPSGKGLEWLAHIWWDDVKRYSPALKSRLTISKDTSSSQLFLKIASVDTADTATYYCARIKSVITTGDYALDYWGQGTSVAVSS
VL: DIQMTQSPASLSVSVGETVTITCRASEIIYSNLAWYQQKQGKSPQLLVYSATNLAEGVPSRFSGSGSGTQYSLKINSLQSEDFGSYYCQHFWGNPWTFGGGTKLEIK
B3: 8C11 mAb mutant S67A (heavy chain) (antibody, V domains shown)
VH: B2 VH with S67A
VL: B2 VL
B4: 8C11 mAb mutant D88A (heavy chain) (antibody, V domains shown)
VH: B2 VH with D88A
VL: B2 VL
B5: 8C11 mAb mutant K66A (heavy chain) (antibody, V domains shown)
VH: B2 VH with K66A
VL: B2 VL

Assays:
Test in all cases: ELISA
[1] = target: Other eight antigen mutants (E2 mutants preincubated with 8C11)
[2] = target: T1, HEV genotype 1 E2(I) dimer protein (hepatitis E virus genotype 1 (human HEV), UniProt P29326)
HEV genotype 4 E2(IV) = HEV genotype 4 E2(IV) (Hepatitis E virus genotype 4, swine …, UniProt D3VV84, strain)
[3] = target: T1, HEV genotype 1 E2(I) dimer protein; remark: listed apart in the source

Binder | ET50 [2] [dilution fold] | binding result (HEV genotype 4 E2(IV)) | binding result [3] | further results
B1 | 4660 | binds |  | fold increase in synergy (8H3 binding with 8C11 pre-bound) [1]: 10 fold; ET50 (after a non-related mAb, anti-HPV mAb A12A3) [2]: 3030 dilution fold
B2 | 172000 | binds |  | ET50 (after a non-related mAb) [2]: 188000 dilution fold
B3 |  |  | binds | 
B4 |  |  | binds | 
B5 |  |  | binds | 
